Tests used:
rat hippocampal slices = test: Long-term potentiation (LTP) in rat hippocampal slices, theta burst stimulation; conditions: after TBS, n=4
Procedure: Since agintonin induces NMDA receptor activation as confirmed above, an examination was made of the effect of gintonin on LTP induction in rat hippocampal slices (Moon et al., Neursci. Lett. 466, 114-119, 2009; Lee et al., J Neurosci. Res. 89, 96-107, 2011). In this regard, LTP induction was studied after treatment with three different concentrations of gintonin (0.1, 1, and 10 μg/ml).
Male rats 3-5 weeks old (Sprague-Dawley strain) (Charls River, U.S.A.) were quickly sacrificed by cervical dislocation without using an anesthetic (Steidl et al., Brain Res. 1096, 70-84, 2006). With the aid of a rongeur (Fine Science Tools Inc., USA), the cranium was removed, and the brain was excised, immediately cooled in ice, and immersed in artificial cerebrospinal fluid (saCSF) containing oxygen-saturated (95% O2/5% CO2) sucrose (composition mM: Sucrose 248, NaHCO3 26, glucose 10, KCl 3, CaCl2 2, MgCl2 1, HEPES 10, pH7.4).
The hippocampus was sectioned into 400 μm slices using vibratome (MA752 motorised advance vibroslice; Campden inc.) and the hippocampal slices were stabilized in artificial cerebrospinal fluid (aCSF) (composition mM: […], NaHCO326, Glucose 10, KCl 3, CaCl2 2, MgCl2 1, HEPES 10, pH 7.4) for 1 hr (Lelong and Rebel, J Pharmacol Toxicol Methods. 39, 203-210, 1998).
OHSCs were incubated according to the Stoppini method (Stoppini et al., J Neurosci Methods 37, 173-182, 1991), and all procedures were conducted on a sterilized bench.
Immediately after excision from the cranium, the rat brain was immersed in an ice-cold HBSS-medium (LB 003-01, Sigma, St. Louis, Mo., USA), and the hippocampus was separated and sectioned at a thickness of 400 μm using a tissue chopper (Mickle Laboratory Engineering Co., Surrey, UK). The hippocampal slices were placed on a membrane insert (polytetrafluorethlene membranes, 0.4 μm Millicell-CM, Millipore Co., Bedford, Mass., USA), and immersed in a culture medium. […]

GPR35 = target: T1, GPR35 (Homo sapiens, UniProt Q9HC97); test: Intracellular free Ca2+ in GPR35-expressing B103 cells; type: cell-based
T1 construct: host or cells: B103 rat neuroblastoma cells
T1 sequence (Q9HC97 whole entry): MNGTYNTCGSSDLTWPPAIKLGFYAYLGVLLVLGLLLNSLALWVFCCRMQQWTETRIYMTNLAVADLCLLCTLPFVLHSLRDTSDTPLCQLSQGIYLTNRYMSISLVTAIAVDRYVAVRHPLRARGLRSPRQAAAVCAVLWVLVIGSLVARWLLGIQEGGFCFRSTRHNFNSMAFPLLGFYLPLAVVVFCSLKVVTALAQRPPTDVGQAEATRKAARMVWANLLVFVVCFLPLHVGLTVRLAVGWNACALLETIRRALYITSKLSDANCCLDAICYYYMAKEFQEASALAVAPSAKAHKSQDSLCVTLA
Description: Optionally, the method may further comprise (8) pre-treating the suspended B103 cells with LPA receptor antagonists and LPA receptor-mediated signaling-relevant drugs (e.g., pertussis toxin, PLC inhibitors, IP3 receptor antagonists) to examine whether the cells decrease or increase in intracellular free Ca^2+, prior to treatment with gintonin; (9) performing site-directed mutagenesis to identify an amino acid of LPA receptors with which gintonin interact to activate the LPA; and (10) examining whether gintonin activates orphan GPCRs including GPR35 and GPR87, and free fatty acid GPCRs including GPR40, GPR41, GPR43 and GPR120, all known for activation by LPA.
In addition, GPR35 (Oka et al., Biochem Biophys Res Commun. 395, 232-237, 2010) and GPR87 (Tabata et al., Biochem Biophys Res Commun. 363, 861-866, 2007), both known as orphan GPCRs reacting with LPA, and GPR40, GPR41, GPR43 and GPR120 (Hirasawa et al., Biol Pharm Bull. 31, 1847-1851, 2008), all known as fatty acid receptors reacting with free fatty acids, were expressed in B103 cells when gintonin activity was tested.

B1: gintonin: ginseng-derived glycolipoprotein; structural protein of ginseng major latex-like protein (MLP151) and ribonuclease-like storage proteins; crude gintonin used in tests (protein)
chain 1: MGLTGKLICQTGIKSDGDVFHELFGTRPHHVPNITPANIQGCDLHEGEFGKVGSVVIWNYSIDGNAMIAKEEIVAIDEEDKSVTFKVVEGHLFEEFKSIVFSVHVDTKGEDNLVTWSIDYEKLNESVKDPTSYLDFLLSVTRDIEAHHLPK
chain 2: RSDYPWAMFALRLQWPAGFCEVNNACDTKSLLNTFTIHGLYPYNAKGTPALYCDGTAFDVNSVSDFLAEMHLAWPSHETNTEDIQFWEHEWKKHGRCSEALLKQTDYFRTALAFRKAFDIVGLLNQEGIYPNNDLYRPKMIKEAIKKHLNAVPEIDFTKNENSEYVLTDINVCVNQQATRFVDCPTDDATDDYRLKFVRLPSKMKFADPRTNSII
total field excitatory postsynaptic potentials (total fEPSPs) (rat hippocampal slices; gintonin 0.1 μg/ml): 180.90±7.53% | total field excitatory postsynaptic potentials (total fEPSPs) (rat hippocampal slices; gintonin 1 μg/ml): 205.32±6.40% | total field excitatory postsynaptic potentials (total fEPSPs) (rat hippocampal slices; gintonin 10 μg/ml): 214.14±11.55% | increase of intracellular calcium level (GPR35): increase an intracellular calcium level in GPR35-expressing B103 cells, but slightly
